{"source": "paper PMC6745501", "about": "“Plant photoreceptors and their signaling components compete for COP1 binding via VP peptide motifs” (The EMBO Journal, 2019)", "binders": {"B1": {"name": "UVR8^HY5VP chimera (recombinant) (other)", "chain": "MAEDMAADEVTAPPRKVLIISAGASHSVALLSGDIVCSWGRGEDGQLGHGDAEDRPSPTQLSALDGHQIVSVTCGADHTVAYSQSGMEVYSWGWGDFGRLGHGNSSDLFTPLPIKALHGIRIKQIACGDSHCLAVTMEGEVQSWGRNQNGQLGLGDTEDSLVPQKIQAFEGIRIKMVAAGAEHTAAVTEDGDLYGWGWGRYGNLGLGDRTDRLVPERVTSTGGEKMSMVACGWRHTISVSYSGALYTYGWSKYGQLGHGDLEDHLIPHKLEALSNSFISQISGGWRHTMALTSDGKLYGWGWNKFGQVGVGNNLDQCSPVQVRFPDDQKVVQVSCGWRHTLAVTERNNVFAWGRGTNGQLGIGESVDRNFPKIIEALSVDGASGQHIESSNIDPSSGKSWVSPAEEIRRVPEFTGLTDGSSKGNGGDISVPQTDVKRVRI"}, "B2": {"name": "CO^366–373 VP peptide (peptide, UniProt Q39057 366-373, looked up)", "peptide": "GYGIVPSF", "notes": "CONSTANS (CO/BBX1) transcription factor, residues 366-373; also called CO VP peptide; CONSTANS; source: synthetic peptide (Peptide Specialty Labs GmbH)"}, "B3": {"name": "COL3^287–294 VP peptide (peptide, UniProt Q9SK53 287-294, looked up)", "peptide": "GFGVVPSF", "notes": "COL3/BBX4 transcription factor, residues 287-294 (holds Phe288); also called COL3 VP peptide; COL3 peptide; source: synthetic peptide (Peptide Specialty Labs GmbH)"}, "B4": {"name": "CRY1^544–552 VP peptide (peptide, UniProt Q43125 544-552, looked up)", "peptide": "EDQMVPSIT", "notes": "cryptochrome 1 (CRY1), Arabidopsis blue-light photoreceptor, residues 544-552 (holds Asp545); also called CRY1 VP peptide; CRY1 peptide; source: synthetic peptide (Peptide Specialty Labs GmbH)"}, "B5": {"name": "HFR1^57–64 VP peptide (peptide, UniProt Q9FE22 57-64, looked up)", "peptide": "YLQIVPEI", "notes": "LONG HYPOCOTYL IN FAR-RED 1 (HFR1) transcription factor, residues 57-64; also called HFR1 peptide; LONG HYPOCOTYL IN FAR‐RED 1; source: synthetic peptide (Peptide Specialty Labs GmbH)"}, "B6": {"name": "HYH^27–34 VP peptide (peptide, UniProt Q8W191 27-34, looked up)", "peptide": "ELLMVPDM", "notes": "HYH (HY5 homolog) transcription factor, residues 27-34; also called HYH peptide; source: synthetic peptide (Peptide Specialty Labs GmbH)"}, "B7": {"name": "full‐length CRY2 (recombinant) (receptor, Arabidopsis, UniProt Q96524 1-612, looked up)", "chain": "MKMDKKTIVWFRRDLRIEDNPALAAAAHEGSVFPVFIWCPEEEGQFYPGRASRWWMKQSLAHLSQSLKALGSDLTLIKTHNTISAILDCIRVTGATKVVFNHLYDPVSLVRDHTVKEKLVERGISVQSYNGDLLYEPWEIYCEKGKPFTSFNSYWKKCLDMSIESVMLPPPWRLMPITAAAEAIWACSIEELGLENEAEKPSNALLTRAWSPGWSNADKLLNEFIEKQLIDYAKNSKKVVGNSTSLLSPYLHFGEISVRHVFQCARMKQIIWARDKNSEGEESADLFLRGIGLREYSRYICFNFPFTHEQSLLSHLRFFPWDADVDKFKAWRQGRTGYPLVDAGMRELWATGWMHNRIRVIVSSFAVKFLLLPWKWGMKYFWDTLLDADLECDILGWQYISGSIPDGHELDRLDNPALQGAKYDPEGEYIRQWLPELARLPTEWIHHPWDAPLTVLKASGVELGTNYAKPIVDIDTARELLAKAISRTREAQIMIGAAPDEIVADSFEALGANTIKEPGLCPSVSSNDQQVPSAVRYNGSKRVKPEEEEERDMKKSRGFDERELFSTAESSSSSSVFFVSQSCSLASEGKNLEGIQDSSDQITTSLGKNGCK", "notes": "cryptochrome 2 (CRY2), Arabidopsis blue-light photoreceptor, full length; not shown: His10, N-terminal, cleaved; Twin-Strep, N-terminal, cleaved"}, "B8": {"name": "CRY2^527–535 VP peptide (peptide, UniProt Q96524 527-535, looked up)", "peptide": "NDQQVPSAV", "notes": "also called CRY2 VP peptide; source: synthetic peptide (Peptide Specialty Labs GmbH)"}, "B9": {"name": "UVR8^406–413 VP peptide (peptide, UniProt Q9FN03 406-413, looked up)", "peptide": "RYAVVPDE", "notes": "also called UVR8 VP peptide; UVR8 peptide; source: synthetic peptide (Peptide Specialty Labs GmbH)"}, "B10": {"name": "STO^240–247 VP peptide (peptide, UniProt Q96288 240-247, looked up)", "peptide": "EHFIVPDL", "notes": "SALT TOLERANCE (STO/BBX24) transcription factor, residues 240-247; also called STO peptide; SALT TOLERANCE (STO/BBX24); source: synthetic peptide (Peptide Specialty Labs GmbH)"}, "B11": {"name": "full‐length HY5 protein (recombinant) (natural protein, Arabidopsis, UniProt O24646 1-168, looked up)", "chain": "MQEQATSSLAASSLPSSSERSSSSAPHLEIKEGIESDEEIRRVPEFGGEAVGKETSGRESGSATGQERTQATVGESQRKRGRTPAEKENKRLKRLLRNRVSAQQARERKKAYLSELENRVKDLENKNSELEERLSTLQNENQMLRHILKNTTGNKRGGGGGSNADASL", "notes": "ELONGATED HYPOCOTYL 5 (HY5) bZIP transcription factor, full length; not shown: His10, N-terminal, cleaved; Twin-Strep, N-terminal, cleaved"}, "B12": {"name": "CRY2^NC80 (CRY2^486–565) (domain or fragment, Arabidopsis, UniProt Q96524 486-565, looked up)", "chain": "SRTREAQIMIGAAPDEIVADSFEALGANTIKEPGLCPSVSSNDQQVPSAVRYNGSKRVKPEEEEERDMKKSRGFDERELF", "notes": "cryptochrome 2 (CRY2), Arabidopsis, fragment of the C-terminus containing the VP motif (NC80 domain), residues 486-565; also called NC80 domain; not shown: His10, N-terminal, cleaved; Twin-Strep, N-terminal, cleaved"}, "B13": {"name": "UVR8^TRIB1VP chimera (recombinant) (other)", "chain": "MAEDMAADEVTAPPRKVLIISAGASHSVALLSGDIVCSWGRGEDGQLGHGDAEDRPSPTQLSALDGHQIVSVTCGADHTVAYSQSGMEVYSWGWGDFGRLGHGNSSDLFTPLPIKALHGIRIKQIACGDSHCLAVTMEGEVQSWGRNQNGQLGLGDTEDSLVPQKIQAFEGIRIKMVAAGAEHTAAVTEDGDLYGWGWGRYGNLGLGDRTDRLVPERVTSTGGEKMSMVACGWRHTISVSYSGALYTYGWSKYGQLGHGDLEDHLIPHKLEALSNSFISQISGGWRHTMALTSDGKLYGWGWNKFGQVGVGNNLDQCSPVQVRFPDDQKVVQVSCGWRHTLAVTERNNVFAWGRGTNGQLGIGESVDRNFPKIIEALSVDGASGQHIESSNIDPSSGKSWVSPAESDQIVPEY"}}, "key": {"[1]": {"molecular_target": "the molecule itself", "experiment": "SEC; purified recombinant chimeric UVR8 proteins alone, in the absence of UV-B"}, "[2]": {"molecular_target": "T1, COP1^349–675,Lys422Ala WD40 domain (Arabidopsis, UniProt P43254 349-675, Lys422Ala)", "T1 construct": "COP1, Arabidopsis, WD40 domain, residues 349-675, Lys422Ala; also called COP1^Lys422Ala; not shown: His10, N-terminal, cleaved; Twin-Strep, N-terminal, cleaved", "T1 sequence (looked up)": "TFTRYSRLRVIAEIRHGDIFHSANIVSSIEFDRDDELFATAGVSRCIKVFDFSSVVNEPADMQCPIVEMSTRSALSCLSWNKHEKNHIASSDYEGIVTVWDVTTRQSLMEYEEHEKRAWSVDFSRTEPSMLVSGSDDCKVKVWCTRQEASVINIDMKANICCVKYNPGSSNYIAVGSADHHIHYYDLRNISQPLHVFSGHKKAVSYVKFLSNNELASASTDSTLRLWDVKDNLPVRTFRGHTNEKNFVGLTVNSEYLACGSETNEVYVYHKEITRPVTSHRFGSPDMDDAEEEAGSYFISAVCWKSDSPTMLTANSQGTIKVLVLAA", "experiment": "ITC; VP peptide (titrant, 500-3,000 μM) injected into COP1 WD40 in the cell at about 10-fold lower concentration; 150 mM NaCl, 20 mM HEPES 7.4, 2 mM BME; 25°C; one-site binding model", "conditions": "both partners purified"}, "[3]": {"molecular_target": "T2, Arabidopsis COP1^349–675 WD40 domain (Arabidopsis, UniProt P43254 349-675)", "T2 construct": "COP1 (CONSTITUTIVELY PHOTOMORPHOGENIC 1) E3 ubiquitin ligase, Arabidopsis, WD40 domain, residues 349-675; also called COP1 WD40 domain; COP1 WD40; not shown: His10, N-terminal, cleaved; Twin-Strep, N-terminal, cleaved", "T2 sequence (looked up)": "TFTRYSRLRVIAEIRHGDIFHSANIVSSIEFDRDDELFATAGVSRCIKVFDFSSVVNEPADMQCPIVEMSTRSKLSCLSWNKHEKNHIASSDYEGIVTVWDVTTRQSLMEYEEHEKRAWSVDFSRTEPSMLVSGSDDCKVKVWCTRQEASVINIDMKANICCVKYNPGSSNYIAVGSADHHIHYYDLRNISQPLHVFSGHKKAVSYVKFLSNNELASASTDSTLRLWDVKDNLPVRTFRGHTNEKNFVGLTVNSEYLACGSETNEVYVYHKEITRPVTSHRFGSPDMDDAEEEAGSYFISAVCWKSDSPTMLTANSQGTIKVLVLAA", "experiment": "ITC; VP peptide (titrant, 500-3,000 μM) injected into COP1 WD40 in the cell at about 10-fold lower concentration; 150 mM NaCl, 20 mM HEPES 7.4, 2 mM BME; 25°C; one-site binding model", "conditions": "both partners purified"}, "[4]": {"molecular_target": "T2, Arabidopsis COP1^349–675 WD40 domain", "experiment": "crystal structure; co-crystals, 5 mg/ml COP1 with 3- to 10-fold molar excess of peptide; 1.25 M sodium malonate pH 7.5; 20°C", "conditions": "both partners purified"}, "[5]": {"molecular_target": "T2, Arabidopsis COP1^349–675 WD40 domain", "experiment": "grating-coupled interferometry (GCI); COP1 WD40 amine-coupled (2,000 pg/mm^2), surface passivated with BSA; analyte full-length CRY2 activated by light (highest 14 μM) or CRY2^NC80 (highest 450 μM); 150 mM NaCl, 20 mM HEPES 7.4, 2 mM BME; 25°C; heterogenous ligand model", "conditions": "both partners purified"}, "[6]": {"molecular_target": "T2, Arabidopsis COP1^349–675 WD40 domain", "experiment": "grating-coupled interferometry (GCI); COP1 WD40 amine-coupled to the chip (2,000 pg/mm^2); analyte in 1:3 dilution series from 2 μM (UVR8 forms pre-monomerized by UV-B; HY5); 150 mM NaCl, 20 mM HEPES 7.4, 2 mM BME; 25°C; 1:1 binding model", "conditions": "both partners purified"}}}
{"binder": "B1", "values": [{"measurement": "stoichiometry N", "setting": "[1]", "value": 2}]}
{"binder": "B2", "values": [{"measurement": "fold stronger binding than to wild type COP1", "setting": "[2]", "value": "~4", "unit": "fold"}, {"measurement": "stoichiometry N", "setting": "[2]", "value": 0.89}, {"measurement": "stoichiometry N", "setting": "[3]", "value": 1.03}]}
{"binder": "B3", "values": [{"measurement": "stoichiometry N", "setting": "[2]", "value": 0.9}, {"measurement": "stoichiometry N", "setting": "[3]", "value": 0.75}]}
{"binder": "B4", "values": [{"measurement": "stoichiometry N", "setting": "[2]", "value": 0.98}, {"measurement": "stoichiometry N", "setting": "[3]", "value": 0.99}]}
{"binder": "B5", "values": [{"measurement": "binding result", "setting": "[4]", "value": "binds"}]}
{"binder": "B6", "values": [{"measurement": "binding result", "setting": "[4]", "value": "binds"}]}
{"binder": "B7", "values": [{"measurement": "fold increase in binding affinity over the isolated CRY2 VP peptide", "setting": "[5]", "value": "~200", "unit": "fold"}]}
{"binder": "B8", "values": [{"measurement": "fold reduction of binding against wild type COP1", "setting": "[2]", "value": "~30", "unit": "fold"}, {"measurement": "stoichiometry N", "setting": "[3]", "value": 1.04}]}
{"binder": "B9", "values": [{"measurement": "fold increase in binding affinity against wild type COP1", "setting": "[2]", "value": "~10", "unit": "fold"}, {"measurement": "stoichiometry N", "setting": "[2]", "value": 0.87}, {"measurement": "binding result", "setting": "[3]", "value": "binds"}]}
{"binder": "B10", "values": [{"measurement": "binding result", "setting": "[4]", "value": "binds"}]}
{"binder": "B11", "values": [{"measurement": "Kd", "setting": "[6]", "value": "~1000", "unit": "nM"}]}
{"binder": "B12", "values": [{"measurement": "binding result", "setting": "[5]", "value": "binds"}]}
{"binder": "B13", "values": [{"measurement": "stoichiometry N", "setting": "[1]", "value": 2}]}
